No end group written: not given here.
B1: 71 (protein)
chain: EERYNFNMDKMLKITCHINLHLKKNPHFTITYKKNLQECIDSCKTNIYCTGIEFSRKRVEYTQIILKNNKKIILGYFKCKQFYFQNIYDYSSYNLDSYLNEHIENQINIKSTLTYTNFIMRNKPDIIYTCSIDRDPKYLLYKNYKLVECVIGKFCPGNNAPYMISCPINSATIIPASEDVNKCLCLKGYSYVGVTSYRCSLCDRGSYKNSVGNNKCDNCPLTFSTTHRGSTNIKDCSCTSGNYLTFD
modifications: bait human Fc-tagged dimer
B2: 53 (protein)
chain: EKLISKLTKNGDLDLVLLYDIGFVDDSENDHMNSLENIAELGKNLLVRDNKNINLAYITYDDINVDLRIESRNNIGVDNENNYDKDNNAAYKFGSDKNIEEFRNVVLDTKLKSSYKNSAHLKALNYVGLKHFYNSEKESVKMVVMFMNTDGDYNNNNNNNMNNIASSYSAELNLVHYLFDRKNIILNIITRVAFKNYCHYIQQIGSNTNELLKCVLKNSFYNIAALTYEIIKYYDDISINAICHGWSEWSPCSVTCNMGYHFSKRDSLGYIKNSKSGLYKRKGRSCLEQRNLIIQECFNTACDHSLDICDNIYMDISILLDDSSNIALESWNKYIIPFVRKFITHFNINNNQINFALTTYSSHTYNWFNFANVLSKDKDKLLTYLEFFKFNFGSSTKNIKQAIQYMNDHVLNTNYRRNDAKKIMLIINSGEIDNKAVTSVPDIIQRLKDTHNVQVYSICINNQNVKNCRKLSTHSMEKYGSNFAFSLPNAADLRYNVLGIQKSICRNVAGAFRRKLRSGNKDDEDKKDDEYKEEDEYKEEDEYKEEDEYKEEDEYKEEDEYKEEDEYKEEDEDMKKDEDMKKDEDMKKDEYKKGYKDYKKDQSKNDNKAEERKDEGNIATSNEHHASEKTDDEDIITQYNEEDRHDNSNDNIIIDDEPVGQDNSIFKNENFFWGRGKHDSKYTSKLSINSLGDINEYNDDYNNYDYYDDDPTNRNKGFLKKNSIILKSLYNLNEDYVNNNINNDAGSTSSHCRNNNAGHNDIPHFKNMRKYNSETNIPCSSKSNKATNKKLLNRLYNMLFRKKKKYRIKNMDAHSKKKVEKFIENIKFSKENNDDNRKIDEQNIEIQFDTLLDGIFDFLQDYDNSALNAFNNAAPDDDFVYFSNTAPCGVSLMDFPIYDMENMEADVGGKRNDGDNNDDDDNNDDGDNNDDGDNNDDDDNDDKSNNNNNNNNNGDPSSNNNNNNNNNNGDPSSNNNNNNNGDPSSNNNDDGDADEKRNDYISQYNLVLKDKSHNNNYYMTNEHDERKIKKQENIDILSKEEDNIASNYNNELQRTKRSLDFPEIIIKENYENPKDIIHISKKEEANEANNAKGHINLKNKKEHNNVVDNVNPCNKQNINEEDNNINNAIKTARIGIFNKNKINCRNKKASKFDKIKRFNDKINKDNHPLITNVENKNEEIDVLQNNEDKKQKILPIIKNENAKETGQKYENNDVYEEHNKANINNNVEKLYKDKNSHHIKNQYDKGNLAENNEVTPIYSKDYDADDEEYEHWHGHQRDNKATP
modifications: bait human Fc-tagged dimer
B3: 47 (protein)
chain: NNIAHKEDDCGASELAIKKLQELKKFELDILKDFIKKDTDHTDMYKRYHCISSDFLKNTKQEDKKEDNYAKKEDKKDIENSANYIINNKNEKISFINKIISFVGMWNYNKYGNNIQESKNKINIYNNNNNKAENELLYNKEDYTNHIPTNENPNSYMQLSAFNLAKKSMFLGGKDNAAQNFEVGNYGSFYMIFGARNTDYPWACSCDTLQLEEYKEKKRSYVLCSNQLDMSIQNSDLFCNPKN
modifications: bait human Fc-tagged dimer
B4: 57 (protein)
chain: NDLCSCNLKVRNNWEHFLQVYQNNGNFKMEILEPECTIQKNLPSEEEKEEFIDFDRKELLLHDFVVIKNSQFTDEKTLELYLSKEENNKAYLMLTFYLGDLKLMIGHNSPYEISLILNVATVNKNMANCKNNAYNIVLLKTTDVFNTADLEILEGPIQFSLGKSSGAFRINVANFFLNNAWKAFTKDKISFLIKPEENCYTILENKINKPQLLIEKKTTFYSEWGEWSNCAMDCDHPDNVQIRERECIHPSGDCFKGDLKESRPCIIPLPPCNELFSHKDNS
modifications: bait human Fc-tagged dimer
B5: 56 (protein)
chain: FLRNKEHANLINSYNDIVEDINIKKEEKSSSEPPFIPIKNKIDNVHTKNNNQYNLHNNKANKAHLTYGTHTSFLQNCAINDCVDVDNKDSEINNIAKEKDDNNNNNGAKQIEEKNKINKADLHRQNELNLQSGKNEQDINKNEKGKQDISNSNAENKKDVKEGVKELEEKKKEEKISDDHKVEENKKSDDHKVEENKKSDDHKVEENKKSDDHKIEEVKKVEEHEEDEEEDKKEKKSENKNKDENKDENDEDNDEISDEDEVDDDVEEDKNENDDIDDDKKETDKTHLEEEENEIIEKEFSDKKKNGKNKDTKKEKSKDTEKEKSKDIEKEKSKDKEKEKSKDKEKEKGKDKEKEKSKDIEKEKEKDKDIEKEKSKDTAKEKEKDKDIEKEKSKDMEKLKNKQNDEKKKDDNEKKKNDKQDIHDDNDDENDMEEIEENDDEEDEDEDMENKKKKKKGKNGNENGNENGAENGNENGNENGNENENKNEAENENENENENENGNENENEKENEKDKNIKEIENVANANKENYEKINKNSEITITKSNIDIYNNNRNNDIDKVNNHIFTNQQKKHNLHNEQNKFNEALNVATNHKNHYEEKKKYESNMFNVDKRMHKNLASMDTILHNLNDKLSHHKDLKNRELKLKFEAMSRIKEYKIYNELIQKSVEILTLRLTKINDELKKLKDISENALQKYINEKGYGLMKHYNFPEYNKLEEEKIMKRSKITWNEKKSHHLYCPMECNKERCYNRPRGPTQCYKLEQIGRNIETICEPFINEHNGACRPDFHHCAIAEPERNKKYSIYATDDVHFVPSQFVTIKGYNLHECLQFLVVKKNSACGPMTIEKNLMESEEILKEPVLSKVLYNEILFENIKISTPGEYNICLAQFYQDPEKDDILSENSANKYKKKKKNDMKVLGIDTIGTLYVLPLHEKQKTG
modifications: bait human Fc-tagged dimer
B6: 1 (protein)
chain: EVESSDSTSFLNLISGQSSSNSDDTVSSSDSRGVVASVSGTVDSDVSRTDSTGNVNSKNSELSETRQNSVEQNNNANSADNSIKIKSAFLKENVGVKITGPCDEGFGLVMVPHIIINVDTRNTDIQLGKKSSEINYGIKLRKKGKDEYEEKVGIDLLKNVCETGKNFKFVAYIKGDELIIKWKVIEEGNIPIDIKKFKIKRMSPPITSIQVFSSMSDEKSFVLENKNYVVTNNMPEKCEALATNCFLSGNIDIEKCYQCSLLVENDAKSDVCYNFISRENKEKLNEERFKVKGSTEYEESVESELKGAIDLLISSFYKSDGENGENVLISFEDLNSALEDDIINFCSLLKLVDLSGTFMNHQIGTTADAFNNIVKLLKEHKEEDEFVLRTKLRNPALCMKNVDDWVKSRCGLLTSDDSYVVIKKNSDTNGKNENNEANDEEYDGVIDLSTNENGNVKSIQFNDDIYCNDDYCNRWKNENNCISKIGVEDQGNCASSWAFASKLHFETLRCMKGYDHLGISALYLTNCAKGKISKRCTEGGNPAEFLEIVSNSGFLPTEFDYPYFYALVENSCPSGLNKWINLWEDVKLFDYKYEPNSIGSKGYSVYKSEMFKDNMDEYVKMIKSEIKNKGSVIAYINAQSVLTYDFNGKNILNMCGSKTTDHSINVIGYGHYKNKEGEEKSYWLVRNSWGYYWGDEGNFKVDMYGPSNCNYHFINTVLVFNIDIPMMNNNENNKKGLYNYFPKYTHEFYHNFYDQNFGSDNKISLINSNGANKNDVNNAYTVHGQSGETEVQPSQLRSTANQDSNRGAVTSDPLRTQPETTSTSVKKMDVFQVLKHVKNSKIKVGLIKYDNDDEIGAHHSCTRAYSFDPEKYDECVEFCRKNWEQCKDKPSPGFCLTKLDESKGCFFCYV
modifications: bait human Fc-tagged dimer
B7: 79 (protein)
chain: YLEQIKNGISGHYTEDHNIKNNNCISFSDYERSIKNFAISSHAENNYDNIINEYKKIKDINNNINILSSVHRKGRILYDSFLEINKLENDKKEKHEKEDEYEDNDESFLETEEYEDNEDEKYNKDEDDYAESFIETDEYEDNEDDKYNKDEDDYSESFIETDEYDDNEEEQYNKDEDDYTDSFIETDHYENNDDKNEEEEEYNDQDNDYGYNFLETDEYDDSEEYDYDDKEYGESFLEKEEGEEMKDEEMKDEEMKDVEMKDEEMKDEEMKYDEMKNEEMKYDEMKDEVMKDEEMKDEVMKDEEMKDEQMKYEEFKNEESKNEESKNEESKNEESKNEEFKNEESKNEEFKNEEFKNEDMSYDEYMGYKKKEEDESYNTFNGAKKNNAANSFLEKDLQGDSDDELHSTFYSKNVDKENYDDKNIFYGYSDNDDESFLETDSYEEYEDEDKDVEDEYEESFLQNDEKKMVFYDLYKPEENEAYYEKKQKKEEKEEKEEKEQSLNKQNDMEDQEDNEEYKFEEENKEDLLDVQQDEELPSEGKQKVKGKSFDNEHLNEIQNVADVHAFIQKDMKYLDDLIDEEQTIKDAVKKSAYKGNKKLGNNKKSQMILEEEPEENFEEDADEELNKLMEQEKNIVDKEIKNSKANKANKKLQFNNANKQNKMYMKNEYNNKAKNNKNNKFEQQNYDESYMDDDYEQNEEFNDNNQAEDMKETNELDKINDELLTDQGPNEDTLLENNNKIFDNKFVAHKKREKSISPHSYQKVSTKVQNKEDMENKEEKQLINDEAAMTAEELVELENTEDVNTPTMVETEEIDSDENGNKAS
modifications: bait human Fc-tagged dimer
B8: 10 (protein)
chain: FRKYDKNKNKILISHSINNNNNAIKNNNNNNNAIKNNNNNNNAIKNNNNNNNAFSATSFSSEKNKNKAYTNVLKKKNIYIREESNKATNIKEDEEKNKKINNNDKETNYAFLSLKFFPFILTSLLHTGINQIPRNTEIELYEFEKSPMIRHMLVAEERKN
modifications: bait human Fc-tagged dimer
B9: 55 (protein)
chain: INVQIGNQKYSLCSNKIKKDLLDFYNTLGVSKSDKNLKDNIKKVNLYTKFRKRLYKDRLSIYANVAIKEKGEEVVPVKVVDEKENKENEEKTNILDQEIFTNFMQYNKNNFFCIDELGLDISIPFYKNSGFGANVVYQLPEMVYVNAYTNIYNTIIKGEFNSIDILKRISFFQFFDNFYLNAHYDFKSEKALLNLESKLYEYYNKHGDNIAFNNKIIVERNMHNEYDGSVCLSLKYNNNVFTPIFNFKDKTYEYVYDNLAANRKFSVKVDKERNVHFNYLSFDRVDESNKYFLFFNFIFSNPMQSIITLKREFIF
modifications: bait human Fc-tagged dimer
B10: 3 (protein)
chain: MGFHIQRYIAMMGRGINPKTWKKLWVDSKNKQIIHVYNDVAEFMNNQIAQVVRVYQYRY
modifications: also: human Fc-tagged dimer

Target: FGFR4 ectodomain (Homo sapiens, UniProt P22455)
Test: AVEXIS normalised luminescence

Question: How did the binding score turn out when B1 was run?
Answer: 1

Question: B2 was tested. Which binding score did it give?
Answer: 1.23

Question: For B3, which binding score is on record?
Answer: 0.93

Question: Which binding score does the source give for B4 here?
Answer: 0.899

Question: B5 was tested. Which binding score did it give?
Answer: 0.733

Question: Which binding score does the source give for B6 here?
Answer: 1.25

Question: How did the binding score turn out when B7 was run?
Answer: 1.06

Question: Which binding score does the source give for B8 here?
Answer: 1.56

Question: B9 was tested. Which binding score did it give?
Answer: 0.922

Question: With B10 as the binder, how does the binding score read?
Answer: 0.753
